Test [1] has as its target CD40 expressed on Ramos [ATCC] cells (UniProt P25942). Nature of the test: cell-based or functional assay.
Test [2] shares this target. Description: flow cytometry (FACS) on Ramos cells expressing CD40, negative control at 2 ug/ml, FIG. 1B.
Test [3] has the same target. Description: flow cytometry (FACS) on Ramos cells expressing CD40, negative control at 2 ug/ml, FIG. 1A.
For test [4] the target is unchanged. Description: flow cytometry (FACS) on Ramos cells expressing CD40, negative control at 2 ug/ml, FIG. 3. Background: Flow cytometry measures light scatter and fluorescence of single cells or particles in a stream.
For test [5] the target is unchanged. Description: flow cytometry (FACS) on Ramos cells expressing CD40, negative control at 2 ug/ml, FIG. 1C.

CD40 expressed on Ramos [ATCC] cells, sequence (P25942 21-277 limits assumed): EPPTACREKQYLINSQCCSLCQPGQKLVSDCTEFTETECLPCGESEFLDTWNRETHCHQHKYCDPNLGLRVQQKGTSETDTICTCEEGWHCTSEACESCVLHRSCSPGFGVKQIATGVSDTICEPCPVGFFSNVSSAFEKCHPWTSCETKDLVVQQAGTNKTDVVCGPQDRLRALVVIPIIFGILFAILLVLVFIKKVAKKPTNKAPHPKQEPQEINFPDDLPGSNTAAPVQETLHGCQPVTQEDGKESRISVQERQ

Consider “human IgG1 antibody against human serum albumin”, for which, in test [1], the CD95 expression level in Ramos cells stimulated with soluble CD40 ligand, isotype control of FIG. 4 (average fluorescence intensity) turned out to be 27.2. In test [1], this substance gave a CD95 expression level in Ramos cells, isotype control of FIG. 2A (average fluorescence intensity) of 7.58. The same substance yielded a CD95 expression level in Ramos cells, isotype control of FIG. 2B (average fluorescence intensity) in test [1] of 7.58. Also, in test [1], the CD95 expression level in Ramos cells, isotype control of FIG. 2C (average fluorescence intensity) amounted to 6.29. The average fluorescence intensity (average fluorescence intensity) in test [2] is 7.15; in test [3] it was 7.15; in test [4], 5.01; in test [5], 5.01.
